Source: patent publication US20210179716A1 (Pfizer, published 2021)
Residue numbers refer to the chain shown, from its start. Like-named read-outs stand apart in the source and are kept apart here. Blank lines part the entries; values can stand above or below the binder they belong to.

How the values were obtained:
cynomolgus PD-L1 protein [1] = biological target: T1, cynomolgus PD-L1 protein (cynomolgus monkey, UniProt G7PSE7 19-238); test: KD; method not stated
T1 construct: also called cyPD-L1; Cyno PD-L1

human PD-L1 protein [2] = biological target: T2, human PD-L1 protein (human, UniProt Q9NZQ7 19-238); test: KD; method not stated
T2 construct: Soluble protein used for the KD measurements; construct not described; also called hPD-L1; CD274

cynomolgus PD-L1 protein [3] = biological target: T1, cynomolgus PD-L1 protein; test: half-life of the complex; method not stated
human PD-L1 protein [4] = biological target: T2, human PD-L1 protein; test: half-life of the complex; method not stated
cynomolgus PD-L1 protein [5] = biological target: T1, cynomolgus PD-L1 protein; test: KD; method not stated; remark: listed apart in the source
human PD-L1 protein [6] = biological target: T2, human PD-L1 protein; test: KD; method not stated; remark: listed apart in the source
mouse PD-L1 protein = biological target: T3, mouse PD-L1 protein (mouse, UniProt Q9EP73 19-238); test: column 'Cross with mouse?'; method not stated
T3 construct: also called mPD-L1

cynomolgus PD-L1 protein [7] = biological target: T1, cynomolgus PD-L1 protein; test: KD; method not stated; remark: listed apart in the source
human PD-L1 protein [8] = biological target: T2, human PD-L1 protein; test: KD; method not stated; remark: listed apart in the source
cynomolgus PD-L1 protein [9] = biological target: T1, cynomolgus PD-L1 protein; test: half-life of the complex; method not stated; remark: listed apart in the source
human PD-L1 protein [10] = biological target: T2, human PD-L1 protein; test: half-life of the complex; method not stated; remark: listed apart in the source
mouse CD47 protein = biological target: T4, mouse CD47 protein (mouse, UniProt Q61735 19-140, limits assumed); test: column 'Cross-react with mouse'; method not stated
T4 sequence (looked up): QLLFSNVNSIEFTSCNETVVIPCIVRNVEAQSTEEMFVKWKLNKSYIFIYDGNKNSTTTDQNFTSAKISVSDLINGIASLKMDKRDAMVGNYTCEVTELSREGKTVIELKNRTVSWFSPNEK

cynomolgus CD47 protein [11] = biological target: T5, cynomolgus CD47 protein (cynomolgus monkey, UniProt A0A2K5X523 19-139); test: KD; method not stated
T5 construct: also called cyCD47; Cyno CD47

cynomolgus CD47 protein [12] = biological target: T5, cynomolgus CD47 protein; test: half-life of the complex; method not stated
cynomolgus CD47 protein [13] = biological target: T5, cynomolgus CD47 protein; test: KD; method not stated; remark: listed apart in the source
human CD47 protein [14] = biological target: T6, human CD47 protein (human, UniProt Q08722 19-139, limits assumed); test: half-life of the complex; method not stated
T6 construct: Soluble protein used for the KD measurements; construct not described; also called hCD47; CD47 (human)

human CD47 protein [15] = biological target: T6, human CD47 protein; test: KD; method not stated
cynomolgus CD47 protein [16] = biological target: T5, cynomolgus CD47 protein; test: KD; method not stated; remark: listed apart in the source
human CD47 protein [17] = biological target: T6, human CD47 protein; test: KD; method not stated; remark: listed apart in the source
cynomolgus CD47 protein [18] = biological target: T5, cynomolgus CD47 protein; test: half-life of the complex; method not stated; remark: listed apart in the source
human CD47 protein [19] = biological target: T6, human CD47 protein; test: half-life of the complex; method not stated; remark: listed apart in the source
[20] = biological target: T7, human CD47 on the cell surface (human); test: flow cytometry, CHO cells stably overexpressing human CD47; positive control
T7 construct: whole, on cells; also called CHO-hCD47; CD47 on HT1080 tumor cells

T2 sequence (Q9NZQ7 19-238 limits assumed): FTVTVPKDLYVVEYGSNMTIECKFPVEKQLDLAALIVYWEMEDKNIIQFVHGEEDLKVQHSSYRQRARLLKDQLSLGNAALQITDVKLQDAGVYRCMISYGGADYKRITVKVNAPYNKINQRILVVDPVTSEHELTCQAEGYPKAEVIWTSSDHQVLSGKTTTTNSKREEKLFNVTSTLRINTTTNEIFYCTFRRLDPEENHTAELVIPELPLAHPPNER
T6 sequence (Q08722 19-139 limits assumed): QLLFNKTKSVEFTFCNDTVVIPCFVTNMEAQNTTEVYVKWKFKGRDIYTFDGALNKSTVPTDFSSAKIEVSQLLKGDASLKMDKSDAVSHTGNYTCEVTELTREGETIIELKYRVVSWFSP
T3 sequence (Q9EP73 19-238 limits assumed): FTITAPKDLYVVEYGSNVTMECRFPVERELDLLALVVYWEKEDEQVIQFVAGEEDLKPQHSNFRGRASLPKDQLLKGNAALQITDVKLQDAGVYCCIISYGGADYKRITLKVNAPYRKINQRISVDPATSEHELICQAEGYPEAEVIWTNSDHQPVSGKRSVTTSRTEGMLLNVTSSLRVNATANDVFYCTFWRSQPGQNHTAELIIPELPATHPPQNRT
T1 sequence (G7PSE7 entry or part of it): as the sequence (Q9NZQ7 19-238 limits assumed) above, with A33T, A34S, S62N, R68Q, Q82R, F173L, T185A, T192I, H215L counted along it

B1: PDL1_P06B05_parent (antibody, V domains shown)
VH: EVQLVESGGGLVKPGGSLRLSCAASGFTFSNAWMNWVRQAPGKGLEWVGRIKTKADGGTTDYAAPVKGRFTISRDDSKNTLYLQMNSLKTEDTAVYYCTTDPGSYWDSVYGGMDYWGQGTLVTVSS
VL: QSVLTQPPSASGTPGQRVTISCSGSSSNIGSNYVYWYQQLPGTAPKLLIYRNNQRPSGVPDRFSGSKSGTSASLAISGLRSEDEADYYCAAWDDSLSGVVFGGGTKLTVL
- Kd (cynomolgus PD-L1 protein [1]): 8.07 nM
- Kd (human PD-L1 protein [2]): 4.42 nM
- T1/2 (cynomolgus PD-L1 protein [3]): 10.2 min
- T1/2 (human PD-L1 protein [4]): 28.2 min
- Kd (cynomolgus PD-L1 protein [5]): 3.11 nM
- Kd (human PD-L1 protein [6]): 2.36 nM
- Kd (mouse PD-L1 protein): 207 nM

B3: PDL1_P04D09_parent (antibody, V domains shown)
VH: EVQLLESGGGLVQPGGSLRLSCAASGFTFSSYAMSWVRQAPGKGLEWVSAIGVRGGITYYADSVKGRFTISRDNSKNTLYLQMNSLRAEDTAVYYCARERSVGELVGIDWMDHWGQGTLVTVSS
VL: not shown
- Kd (cynomolgus PD-L1 protein [1]): 1.15 nM
- Kd (human PD-L1 protein [2]): 0.56 nM
- T1/2 (cynomolgus PD-L1 protein [3]): 20.1 min
- T1/2 (human PD-L1 protein [4]): 43.6 min
- Kd (mouse PD-L1 protein): 20.4 nM

B6: CD47_P01A11_parent (antibody, V domains shown)
VH: QVQLVQSGAEVKKPGSSVKVSCKASGYTFTNYAISWVRQAPGQGLEWMGGISPLFGTANYAQKFQGRVTITADESTSTAYMELSSLRSEDTAVYYCARDGGRSSDVGWYVGAMDVWGQGTLVTVSS
VL: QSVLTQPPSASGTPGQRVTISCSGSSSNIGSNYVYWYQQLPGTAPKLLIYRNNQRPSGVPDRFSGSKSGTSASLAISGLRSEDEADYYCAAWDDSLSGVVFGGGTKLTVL
notes: also called P01A11_wt
- Kd (mouse CD47 protein): > 6800 nM
- Kd (cynomolgus CD47 protein [11]): 1.3 nM
- T1/2 (cynomolgus CD47 protein [12]): 21.1 min
- Kd (cynomolgus CD47 protein [13]): 1.02 nM

B7: CD47_P01A08_parent (antibody, V domains shown)
VH: B6 VH with T30S, S35T, L54I, V106G, Y109R, V110G, G111A, A112G, V115Y
VL: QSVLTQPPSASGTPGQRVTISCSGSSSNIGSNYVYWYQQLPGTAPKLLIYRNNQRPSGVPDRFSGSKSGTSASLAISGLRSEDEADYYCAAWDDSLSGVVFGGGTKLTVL
- T1/2 (cynomolgus CD47 protein [12]): 20.2 min
- T1/2 (human CD47 protein [14]): 21.3 min
- Kd (cynomolgus CD47 protein [13]): 2.08 nM
- Kd (human CD47 protein [15]): 1.72 nM

B9: CD47_P01A11_75 (antibody, V domains shown)
VH: B6 VH with T30S, N31S, L54I, G100A, M113I
VL: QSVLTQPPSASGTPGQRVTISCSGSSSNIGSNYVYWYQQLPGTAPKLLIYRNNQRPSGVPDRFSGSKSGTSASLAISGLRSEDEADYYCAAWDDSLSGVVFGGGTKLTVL
notes: Monospecific antibody; also called anti-CD47 antibody P01A11_75
- T1/2 (cynomolgus CD47 protein [18]): 0.48 min
- T1/2 (human CD47 protein [19]): 0.49 min
- EC50 [20]: 0.98 nM
- Kd (cynomolgus CD47 protein [16]): 105 nM
- Kd (human CD47 protein [17]): 75 nM

Continued, values first:

- Kd (cynomolgus PD-L1 protein [7]): 1.6 nM
- Kd (human PD-L1 protein [8]): 1.6 nM
- T1/2 (cynomolgus PD-L1 protein [9]): 23.7 min
- T1/2 (human PD-L1 protein [10]): 23.4 min
B2: PDL1_P06B05_245 (antibody, V domains shown)
VH: B1 VH with S104E
VL: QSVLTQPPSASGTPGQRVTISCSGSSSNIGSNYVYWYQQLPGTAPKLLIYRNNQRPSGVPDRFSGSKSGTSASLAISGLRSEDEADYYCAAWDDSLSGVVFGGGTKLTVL
notes: Monospecific antibody; also called anti-PD-L1 antibody P06B05_245

- Kd (cynomolgus PD-L1 protein [7]): 1.7 nM
- Kd (human PD-L1 protein [8]): 1.7 nM
- T1/2 (cynomolgus PD-L1 protein [9]): 23.4 min
- T1/2 (human PD-L1 protein [10]): 22.2 min
B4: PDL1_P04D09_113 (antibody, V domains shown)
VH: B3 VH with W110Q
VL: not shown

- Kd (cynomolgus PD-L1 protein [1]): 5.75 nM
- Kd (human PD-L1 protein [2]): 2.97 nM
- T1/2 (cynomolgus PD-L1 protein [3]): 2.79 min
- T1/2 (human PD-L1 protein [4]): 5.13 min
- Kd (mouse PD-L1 protein): 113 nM
B5: PDL1_P06A09_parent (antibody, V domains shown)
VH: EVQLVESGGGLVKPGGSLRLSCAASGFTFSNAWMNWVRQAPGKGLEWVGRIKSESDGGTTDYAAPVKGRFTISRDDSKNTLYLQMNSLKTEDTAVYYCTTDYRIDDWGYPYPGMDYWGQGTLVTVSS
VL: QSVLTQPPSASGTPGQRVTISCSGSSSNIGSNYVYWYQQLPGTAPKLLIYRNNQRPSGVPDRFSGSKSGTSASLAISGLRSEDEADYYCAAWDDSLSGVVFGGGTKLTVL

- Kd (cynomolgus CD47 protein [16]): 704 nM
- Kd (human CD47 protein [17]): 497 nM
B8: CD47_P01A11_497 (antibody, V domains shown)
VH: B6 VH with Y27G, N31S, L54I, G100A, M113L
VL: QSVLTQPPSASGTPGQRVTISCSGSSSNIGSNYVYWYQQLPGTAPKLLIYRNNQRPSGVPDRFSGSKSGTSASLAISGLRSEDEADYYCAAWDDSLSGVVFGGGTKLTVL
notes: Monospecific antibody

- T1/2 (cynomolgus CD47 protein [12]): 2.52 min
- T1/2 (human CD47 protein [14]): 3.6 min
- Kd (cynomolgus CD47 protein [13]): 9.7 nM
- Kd (human CD47 protein [15]): 6.39 nM
B10: CD47_P14D04_parent (antibody, V domains shown)
VH: EVQLLESGGGLVQPGGSLRLSCAASGFSFSTFTMNWVRQAPGKGLEWVSTISGTGGNTYYADSVKGRFTISRDNSKNTLYLQMNSLRAEDTAVYYCARRRSTVGSNGHSYWFDYWGQGTLVTVSS
VL: not shown
